# Reference: patent US20250027068
# Molecular target: pooled human IgG (human IgG1,2,3 and 4)
Protein,Enzyme Activity Endpoint Assay: Fab'2 [ng/µL],Enzyme Activity Endpoint Assay: Fc [ng/µL],Enzyme Activity Endpoint Assay: IgG [ng/µL],Enzyme Activity Endpoint Assay: scIgG [ng/µL]
PRT-176 (protein) MANQEIRYSEVTPYHITSVWTKGVTPPTDFIKGEDVFHAPYKAHQGWYDITKTFNGGDDLLCGAATAGNMLHWWFDQNKTQIEAYLKKHPEKQKINFNGEQMFDVKEAIDTKNSQTNSELFNYFKEKAFPYLSTKHLGVFPDHVIDMFINGYRLSLTNHGPTPVKRQTKDPRGGIFDAVFGRGDQTKLLTSRHDFKEKTLNDISQLIKQELQSGKALGLSHTYANVRINHVINLWGADFDAEGNLEAIYVTDSDSNASIGMKKYFVGKNASGKVAISAKEIEDENIGAQVLGLFTLSTGKKSWEKTN,310,140,0,86
PRT-177 (protein) MANQEIRYSEVTPYHIKTVWTDGVKPPTDFIKGEDVFHAPYKAHQGWYDITKAFDGGDDLLCGAATAGNMLHWWFDQNSTQIEAYLKKHPDKQKINFNGEQMFDVKEAIDTKNSQTNSELFNYFKEKAFPYLSTKHLGVFPDHVIDMFINGYRLSLTNHGPTPVKRQTKDPRGGIFDAVFGRGDSTKLLTSRHDFKEKTLNDISQLIKQELQSGKALGLSHTYANVRINHVINLWGADFDAEGNLEAIYVTDSDSNASIGMKKYFVGKNASGKVAISAKEIEDENIGAQVLGLFTLSTGKKSWEKTN,67,105,131,426
PRT-168 (protein) MANQEIRYSEVTPYHVTSVWTKGVTPPEDFTQGEDVFHAPYKANQGWYDITKTFNGKDDLLCGAATAGNMLHWWFDQNKDQIKRYLEEHPEKQKINFNGEQMFDVKEAIDTKNSQLDSKLFEYFKEKAFPYLSTKHLGVFPDHVIDMFINGYRLSLTNHGPTPVKEGSKDPRGGIFDAVFTRGDQSKLLTSRHDFKEKNLKEISDLIKKELTEGKALGLSHTYANVRINHVINLWGADFDSNGNLKAIYVTDSDSNASIGMKKYFVGVNSAGKVAISAKEIKEDNIGAQVLGLFTLSTGQDSWNQTN,628,159,0,0
PRT-173 (protein) MANQEIRYSEVTPYHVTSVWTKGVTPPANFTQGEDVFHAPYVANQGWYDITKTFNGKDDLLCGAATAGNMLHWWFDQNKDQIKRYLEEHPEKQKINFNGEQMFDVKEAIDTKNHQLDSKLFEYFKEKAFPYLSTKHLGVFPDHVIDMFINGYRLSLTNHGPTPVKEGSKDPRGGIFDAVFTRGDQSKLLTSRHDFKEKNLKEISDLIKKELTEGKALGLSHTYANVRINHVINLWGADFDSNGNLKAIYVTDSDSNASIGMKKYFVGKNASGKVAISAKEIEGENIGAQVLGLFTLSTGQDSWNQTN,912,226,0,30
PRT-169 (protein) MANQEIRYSEVTPYHVTSVWTKGVTPPTDFTQGEDVFHAPYKANQGWYDITKTFNGKDDLLCGAATAGNMLHWWFDQNKDQIKRYLEEHPEKQKINFNGEQMFDVKEAIDTKNDQLDSKLFEYFKEKAFPYLSTKHLGVFPDHVIDMFINGYRLSLTNHGPTPVKEGSKDPRGGIFDAVFTRGDQSKLLTSRHDFKEKNLKEISDLIKKELTEGKALGLSHTYANVRINHVINLWGADFDSNGNLKAIYVTDSDSNASIGMKKYFVGVNSAGKVAISAKEIKEDNIGAQVLGLFTLSTGQDSWNQTN,658,188,0,0
PRT-170 (protein) MANQEIRYSEVTPYHVTSVWTKGVTPPTDFIKGEDVFHAPYKAHQGWYDITKTFNGKDDLLCGAATAGNMLHWWFDQNKDQIKRYLEEHPEKQKINFNGEQMFDVKEAIDTKNSQLDSKLFEYFKEKAFPYLSTKHLGVFPDHVIDMFINGYRLSLTNHGPTPVKEGSKDPRGGIFDAVFTRGDQSKLLTSRHDFKEKNLKEISDLIKKELTEGKALGLSHTYANVRINHVINLWGADFDSNGNLKAIYVTDSDSNASIGMKKYFVGVNSAGKVAISAKEIKEDNIGAQVLGLFTLSTGQDSWNQTN,755,193,0,0
PRT-171 (protein) MANQEIRYSEVTPYHVTSVWTKGVTPPTDFIKGEDVFHAPYKAGQGWYDITKTFNGKDDLLCGAATAGNMLHWWFDQNKDQIKRYLEEHPEKQKINFNGEQMFDVKEAIDTKNSQLDSKLFEYFKEKAFPYLSTKHLGVFPDHVIDMFINGYRLSLTNHGPTPVKEGSKDPRGGIFDAVFTRGDQSKLLTSRHDFKEKNLKEISDLIKKELTEGKALGLSHTYANVRINHVINLWGADFDSNGNLKAIYVTDSDSNASIGMKKYFVGVNSAGKVAISAKEIKEDNIGAQVLGLFTLSTGQDSWNQTN,765,187,23,0
PRT-174 (protein) MANQEIRYSEVTPYHVTSVWTKGVTPPANFTQGEDVFHAPYVANQGWYDITKTFNGKDDLLCGAATAGNMLHWWFDQNKDQIKRYLEEHPEKQKINFNGEQMFDVKEAIDTKNHQLDSKLFEYFKEKAFPYLSTKHLGVFPDHVIDMFINGYRLSLTNHGPTPVKEGSKDPRGGIFDAVFTRGDQSKLLTSRHDFKEKNLKEISDLIKKELTEGKALGLSHTYANVRINHVINLWGADFDSNGNLKAIYVTDSDSNASIGMKKYFVGKNASGKVAISAKEIEDENIGAQVLGLFTLSTGQDSWNQTN,586,160,0,0
PRT-172 (protein) MANQEIRYSEVTPYHVTSVWTKGVKPPTDFIKGEDVFHAPYKAHQGWYDITKTFNGKDDLLCGAATAGNMLHWWFDQNKDQIKRYLEEHPEKQKINFNGEQMFDVKEAIDTKNSQLDSKLFEYFKEKAFPYLSTKHLGVFPDHVIDMFINGYRLSLTNHGPTPVKEGSKDPRGGIFDAVFTRGDQSKLLTSRHDFKEKNLKEISDLIKKELTEGKALGLSHTYANVRINHVINLWGADFDSNGNLKAIYVTDSDSNASIGMKKYFVGVNSAGKVAISAKEIKEDNIGAQVLGLFTLSTGQDSWNQTN,821,215,0,0
PRT-175 (protein) MANQEIRYSEVTPYHITSVWTKGVTPPTDFTQGEDVFHAPYKANQGWYDITKTFNGKDDLLCGAATAGNMLHWWFDQNKTQIERYLKKHPEKQKINFNGEQMFDVKEAIDTKNSQTNSELFNYFKEKAFPYLSTKHLGVFPDHVIDMFINGYRLSLTNHGPTPVKRQSKDPRGGIFDAVFTRGDQSKLLTSRHDFKEKTLNEISQLIKQELTEGKALGLSHTYANVRINHVINLWGADFDAEGNLEAIYVTDSDSNASIGMKKYFVGVNSAGKVAISAKEIKEDNIGAQVLGLFTLSTGKDSWEKTN,497,147,0,0
